B1: H2L6 Fab (Fab, V domains shown)
VH: QVTLKESGPVLVKPTETLTLTCTVSGFSLSTYGMGVGWIRQPPGKALEWLAHIWWDDVKRYNPALKSRLTISKDTSKSQVVLTMTNMDPVDTATYYCARMGSDYDVWFDYWGQGTLVTVSS
VL: EIVLTQSPATLSLSPGERATLSCRASKSISKYLAWYQQKPGQAPRLLIYSGSTLQSGIPARFSGSGSGTDFTLTISSLEPEDFAVYYCQQHNEYPYTFGQGTKLEIK
notes: humanized version of C836 (CDRs grafted into human variable framework segments), human G1 constant domain; humanized version of C836 (CDRs grafted into human variable framework segments), human kappa constant domain
B2: M1295 Fab (Fab, V domains shown)
VH: QVTLKESGPVLVKPTETLTLTCTVSGFSLSTYGVGVGWIRQPPGKALEWLAHIWWDDVKRYNPALKSRLTISKDTSKSQVVLTMTNMDPVDTATYYCARLGSDYDVWFDYWGQGTLVTVSS
VL: EIVLTQSPATLSLSPGERATLSCRASKSISKYLAWYQQKPGQAPRLLIYSGSTLQSGIPARFSGSGSGTDFTLTISSLEPEDFAVYYCQQHDYPYTFGQGTKLEIK
notes: human G1 constant domain; human kappa constant domain
B3: C836 Fab (Fab, V domains shown)
VH: QVTLKESGPGILQPSQTLSLTCSFSGFSLSTYGMGVGWIRQPSGKGLEWLAHIWWDDVKRYNPALKSRLTISKDTSGSQVFLKIASVDTSDTATYYCARMGSDYDVWFDYWGQGTLVTVSA
VL: DVQITQSPSYLAASPGETITLNCRASKSISKYLAWYQEKPGKTNKLLIYSGSTLQSGIPSRFSGSGSGTDFTLTISSLEPEDFAMYFCQQHNEYPYTFGGGTKLEIK
notes: mouse VH of hybridoma mAb C836 joined to the human G1 constant region (Fab part); mouse VL of hybridoma mAb C836 joined to the human kappa constant region; Chimeric Fab; also called His-tagged C836 Fab

This is an account of results in publication PMC2917276 (Acta Crystallographica Section D: Biological Crystallography, 2010).

The target in this test is T1, Recombinant human IL-13 (human, UniProt P35225).
T1 construct: interleukin-13, human, recombinant; source: bought: R&D Systems (catalog No. 213-IL/CF), reconstituted in PBS pH 7.4
T1 sequence (P35225 35-143): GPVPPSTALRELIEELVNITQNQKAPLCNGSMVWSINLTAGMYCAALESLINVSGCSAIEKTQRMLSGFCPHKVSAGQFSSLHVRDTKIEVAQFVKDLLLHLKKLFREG
The experiment in a line: SEC; Fab mixed with IL-13 at a Fab:IL-13 molar ratio of 1:1.2, 20 min at 277 K; Superdex 200 10/300 in 20 mM HEPES pH 7.5, 0.1 M NaCl; elution compared with the free Fab. Particulars: both partners purified.
On to B1, for which the binding result is recorded as “binds”. For B2, the binding result is reported as “binds”. As for B3, the entry is “binds”.
